Assays:
[1] = target: Fluorescein (FITC)-labelled bi-phospho Tau peptide pS2 (Tau^210–222-…-Tau^318–331) (human); test: fluorescence polarisation; 14-3-3ζ titrated (twofold series from 400 μM) into 10 nM fluorescein-labelled peptide; 10 mM HEPES pH 7.4, 150 mM NaCl, 50 µM TCEP, 0.1% Tween20, 0.1% BSA; room temperature; 4PL fit
[2] = target: PKA-phosphorylated full-length human Tau (PKA-Tau) (human) (UniProt P10636)
PKA-phosphorylated full-length human Tau (PKA-Tau) (human), sequence (P10636 other isoform, or with tags, fused parts or gaps): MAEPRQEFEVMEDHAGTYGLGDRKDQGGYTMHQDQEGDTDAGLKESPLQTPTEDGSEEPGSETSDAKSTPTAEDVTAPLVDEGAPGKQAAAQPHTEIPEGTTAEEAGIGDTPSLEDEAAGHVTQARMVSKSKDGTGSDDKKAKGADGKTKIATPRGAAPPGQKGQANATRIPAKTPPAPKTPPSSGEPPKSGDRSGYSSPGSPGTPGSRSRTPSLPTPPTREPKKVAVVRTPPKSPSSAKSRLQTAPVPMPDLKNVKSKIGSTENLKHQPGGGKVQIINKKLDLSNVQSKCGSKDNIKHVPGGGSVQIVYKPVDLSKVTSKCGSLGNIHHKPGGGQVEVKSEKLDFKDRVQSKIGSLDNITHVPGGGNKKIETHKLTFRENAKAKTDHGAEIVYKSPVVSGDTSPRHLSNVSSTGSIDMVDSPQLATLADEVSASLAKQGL

Fluorescein (FITC)-labelled bi-phospho Tau peptide pS2 (Tau^210–222-…-Tau^318–331) (human), sequence (peptide, as listed by the source): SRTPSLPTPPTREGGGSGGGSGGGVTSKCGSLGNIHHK

Substance: 14-3-3 protein zeta (14-3-3ζ) (from UniProt P63104 1-245) (natural protein)
- Kd [1]: 1000 nM
- FRAP mobile fractions in PKA-Tau:14-3-3ζ condensates [2]: 50%

— publication PMC12313985
